Data taken from patent publication US20260055187A1 (SANTA ANA BIO, published 2026).

T1: ICOS extracellular domain (PD-1 family member) (UniProt Q9Y6W8 21-140, limits assumed)
T1 construct: extracellular domain; not shown: His tag
T1 sequence (looked up): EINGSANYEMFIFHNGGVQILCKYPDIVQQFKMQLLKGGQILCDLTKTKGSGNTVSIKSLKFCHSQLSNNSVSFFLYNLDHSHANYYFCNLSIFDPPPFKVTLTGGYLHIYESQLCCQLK

T2: CTLA-4 extracellular domain (PD-1 family member) (UniProt P16410 36-161, limits assumed)
T2 construct: extracellular domain; not shown: His tag
T2 sequence (looked up): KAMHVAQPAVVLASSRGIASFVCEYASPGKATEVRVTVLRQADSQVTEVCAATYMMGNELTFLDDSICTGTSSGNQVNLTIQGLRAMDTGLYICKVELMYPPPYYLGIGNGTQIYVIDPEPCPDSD


Experiments:
[1] = target: T1, ICOS extracellular domain (PD-1 family …); assay: ELISA, His-tagged extracellular domain on plate
Description: (§1) His-tagged extracellular domains of human PD-1, cynomolgus PD-1, and PD-1 family members ICOS, CD28, and CTLA-4 extracellular domains were immobilized on 96 well ELISA plates. Plates were washed with PBST (phosphate buffered saline+0.05% Tween 20) and blocked for 1 hour with 1% BSA in PBS. Following washing with PBST, test PD-1 antibodies were added to the coated plate and incubated for 2 hours at room temperature. Plates were washed and incubated with HRP-conjugated goat anti-human IgG secondary antibody for 1 hour at room temperature. Following washing, antibody binding was detected colorimetrically by adding 3,3′,5,5′-tetramethylbenzidine (TMB) and incubated at room temperature for 10-20 minutes before adding 2.5N sulfuric acid stopping solution. Absorbance at 450 nm was measured on a plate reader (PerkinElmer). Data was analyzed using Graph-Pad Prism.

[2] = target: T3, CD28 extracellular domain (PD-1 family member) (UniProt P10747 19-152, limits assumed); assay: ELISA, His-tagged extracellular domain on plate
T3 construct: extracellular domain; not shown: His tag
T3 sequence (P10747 19-152 limits assumed): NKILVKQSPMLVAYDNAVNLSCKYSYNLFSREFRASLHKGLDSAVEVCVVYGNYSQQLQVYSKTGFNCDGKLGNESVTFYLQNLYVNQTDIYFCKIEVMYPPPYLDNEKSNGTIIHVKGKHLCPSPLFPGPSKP
Description: as §1

[3] = target: T2, CTLA-4 extracellular domain (PD-1 …); assay: ELISA, His-tagged extracellular domain on plate
Description: as §1

PD-1 biotin = target: T4, PD-1 biotin (UniProt Q15116 25-167, limits assumed, biotin (site not stated)); assay: PD-1/PD-L1 blocking ELISA, interpolated on a standard curve of a PD-1 neutralizing antibody
T4 construct: also called biotinylated PD-1
T4 sequence (Q15116 25-167 limits assumed): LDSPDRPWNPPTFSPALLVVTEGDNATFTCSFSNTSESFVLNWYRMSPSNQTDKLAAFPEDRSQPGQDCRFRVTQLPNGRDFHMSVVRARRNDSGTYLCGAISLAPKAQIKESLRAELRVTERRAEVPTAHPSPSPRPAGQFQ
Description: The ability of disclosed PD-1 antibodies to block the PD-1/PD-L1 interaction was assessed using an ELISA based assay.
Briefly, human PD-L1 was immobilized on 96 well ELISA plates. Plates were washed and blocked for 1.5 hours at 37° C. with block buffer. Plates were washed and test PD-1 antibodies, isotype controls, or a standard curve of PD-1 neutralizing antibody were added to the coated plate and incubated for 1 hour at 37° C. […] Following washing, streptavidin-HRP was added to the plate and the plate was incubated at 37° C. for 1 hour. After a final wash, antibody binding was detected colorimetrically by adding a subrate solution and incubating for 20 minutes protected from light before adding stop solution. Absorbance at 450 nm was measured on a plate reader (PerkinElmer). Data was analyzed using GraphPad Prism.
Percent blocking of tested PD-1 antibodies was determined by interpolating values obtained from each sample against the standard control curve (see FIG. 1) and summarized in Table 4.

binding result [1] | binding result [2] | binding result [3] | Percent Blocking (PD-1 biotin) [percent] | Binder
no binding | no binding | no binding | 0 | PD-1 antibody 2.3A9 (antibody, V domains shown, detection used an anti-human IgG secondary antibody; also called Murine 2.3A9) VH: QVQLQQSDAELVKPGTSVKISCKASGYTFTDHAIHWLKQEPDQGLEWIGYISPGYGDIEYNEKFKGKATLTADKSSSTAYMQLSSLTSEDSAVYFCKVTTGYWGQGTTLTVS VL: not shown
no binding | no binding | no binding | 7 | PD-1 antibody 1-17 (antibody, V domains shown, detection used an anti-human IgG secondary antibody) VH: QVQLQESGPGVVKPSGTLSLTCAISGGSIGSGGSIRSTRWWSWVRQSPGKGLEWIGEIYHSGSTNYNPSLKSRVTISLDKSRNHFSLRLNSVTAADTAVYYCARQDYGDSGDWYFDLWGKGTMVTVSS VL: NFMLTQPHSVSESPGKTVTISCTRSSGSIASNSVQWYQQRPGSSPTTVIYEDNQRPSGVPDRFSGSIDSSSNSASLTVSGLKTEDEADYYCQSSDSSAVVFGSGTKLTVL
no binding | no binding | no binding | 58 | PD-1 antibody 1-35 (antibody, V domains shown, detection used an anti-human IgG secondary antibody) VH: QVQLQESGPGLVKPSQTLSLTCTVSGGSISSGAYYWSWIRQHPGKGLEWIGYIYYNGNTYYNPSLRSLVTISVDASKNQFSLKLSSVTAADTAVYYCARASDYVWGGYRYMDAFDIWGRGTLITVSS VL: not shown
no binding | no binding | no binding | 68 | PD-1 antibody 1-33 (antibody, V domains shown, detection used an anti-human IgG secondary antibody) VH: QVQLVQSGAEVKKPGASVRVSCKASGYTLTSYYIHWVRQAPGQGLEWMGIINPRGATISYAQKFQGRVTMTRDTSTSTVYMELRNLKSEDTALYYCATAGIYGFDFDYWGRGTLVTVSS VL: QSALTQPASVSGSPGQSITISCTGTSNDVGGYNYVSWYQHHPGKAPKLIIYDVTNRPSGVSDRFSGSKSGNTASLTISGLLAEDEGDYYCSSYTIVTNFEVLFGGGTKLTV
no binding | no binding | no binding | 94 | PD-1 antibody 20B3.1 (antibody, V domains shown, detection used an anti-human IgG secondary antibody; also called Murine 20B3.1) VH: EVKLVESGGGLVKPGGSLKLSCAASGFTFSSFGMSWVRQTPEKRLEWVATISGGGSNTYYPDSVKGRFTISRDNAKNNLYLQMTSLTSEDTALYYCTRIYDVAWFAYWGQGTLVTVS VL: not shown
no binding | no binding | no binding | 87 | PD-1 antibody 1-28 (antibody, V domains shown, detection used an anti-human IgG secondary antibody) VH: EVQLVQSGAEVKKPGASVKVSCKASGYRFTSYGISWVRQAPGQGLEWMGWISAYNGNTNYAQKLQGRVTMTTDTSTNTAYMELRSLRSDDTAVYYCARDADYSSGSGYWGQGTLVTVSS VL: SYELTQPPSVSVSPGQTARITCSGDALPKQYAYWYQQKPGQAPVMVIYKDTERPSGIPERFSGSSSGTKVTLTISGVQAEDEADYYCQSADNSITYRVFGGGTKVTVL
no binding | no binding | no binding | 90 | PD-1 antibody 1B8 (antibody, V domains shown, detection used an anti-human IgG secondary antibody; also called Murine 1B8) VH: EVQLVLSGGGFVQPGGSLKLSCAASGFTFSSYAMSWVRQNPERRLVWVATITGGGRNTYYPDSVKGRFTISRDNAKNTLYLQMSSLRSEDTAMYYCTRQGYDGYTWFAYWGQGTLVTVS VL: not shown
no binding | no binding | no binding | 46 | PD-1 antibody 3H4 (antibody, V domains shown, detection used an anti-human IgG secondary antibody; also called Murine 3H4) VH: QIQLQQSGPELVKPGASVKISCKASGYTFTDYYINWVKQKPGQGLEWIGWIYPGSVNTKYNEKFRGKATLTVDTSSSTAYIQLSGLTSEDTAVYFCARYSNWFFDVWGAGTAVTVS VL: DIVMTQSPSSLSASLGERVSLTCRASQEISGYLSWLQQKPDGTIKRLIYAASTLDSGVPKRFSGSRSGSDYSLSISSLESEDFADYYCLQYASYPYTFGGGTKLEIKR
